Measurements: US20170157165A1

Biological target: Human FGF2 (manufactured by Peprotech Inc.) (human) (UniProt P09038)
Test: cell-based or functional assay

Sequence of Human FGF2 (manufactured by Peprotech Inc.) (human) (P09038 135-288 limits assumed): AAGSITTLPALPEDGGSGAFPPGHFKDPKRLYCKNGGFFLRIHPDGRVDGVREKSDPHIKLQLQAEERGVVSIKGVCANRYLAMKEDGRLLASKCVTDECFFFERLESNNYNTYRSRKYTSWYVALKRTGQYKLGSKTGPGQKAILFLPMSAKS

inhibitory rate (%) of FGF2-dependent growth of HUVEC cells; 3H3 (1 nM) + FGF2 (500 pM): 8.5%
inhibitory rate (%) of FGF2-dependent growth of HUVEC cells; 3H3 (5 nM) + FGF2 (500 pM): 30%
inhibitory rate (%) of FGF2-dependent growth of HUVEC cells; 3H3 (25 nM) + FGF2 (500 pM): 100%
Substance: anti-FGF2 antibody Anti-FGF, basic (Ab-3) Mouse mAb (3H3) (manufactured by Calbiochem)
